Assay in all cases: cell_activity
Data set [1] concerns ZFP SBS15590 (monomer of eZFN1 and eZFN8) (synthetic construct). Conditions: in planta cut plus chimeric.
Data set [2] has as its system ZFP SBS18473 (monomer of eZFN8) (synthetic construct). Conditions: as eZFN8 pair with SBS15590; in planta cut plus chimeric, 489/697 plants.
Data set [3] has as its system ZFP SBS8196 (monomer of eZFN1) (synthetic construct). Conditions: as eZFN1 pair with SBS15590; in planta cut plus chimeric, 524/1125 plants.

For one sequence, activity results are on record in US20140298547.

Take “ATTTTACAATCCTGTCCCTAGTGAGATGGGCGGGAGTCTTCAATCCTGTCCCTAGTGGATAAACTGCAAAAGGCGGATCA (double strand) [ELP locus eZFN1/eZFN8 binding region]”: the activity was 46.6% in data set [1] (as eZFN1 pair with SBS8196, 524/1125 plants); 70.2% in data set [1] (as eZFN8 pair with SBS18473, 489/697 plants); 70.2% in data set [2]; 46.6% in data set [3].
